Reference: PMC3008712

Columns and labels:
[1] = biological target: T1, recombinant human γD-crystallin (human), P07320; test: reducing SDS-PAGE; 1 mg/ml HGDC in 5 mM sodium phosphate pH 7.0, UV-C irradiated (254 nm, 1,850 μW/cm^2) for 10-60 min; 15% gel, sample buffer with β-mercaptoethanol; band intensities by Image-J; conditions: remark: other sources report otherwise
T1 chain: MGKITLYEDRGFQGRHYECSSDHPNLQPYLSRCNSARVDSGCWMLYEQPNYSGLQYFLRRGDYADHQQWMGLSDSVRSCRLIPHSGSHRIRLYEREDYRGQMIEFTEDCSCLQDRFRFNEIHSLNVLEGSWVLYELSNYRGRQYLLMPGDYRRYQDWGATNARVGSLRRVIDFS

[2] = biological target: T1, recombinant human γD-crystallin …; test: non-reducing SDS-PAGE; 1 mg/ml HGDC in 5 mM sodium phosphate pH 7.0, UV-C irradiated (254 nm, 1,850 μW/cm^2) for 10-60 min; 15% gel, sample buffer without β-mercaptoethanol; band intensities by Image-J; conditions: remark: other sources report otherwise

HGDC polymerization (%) with β-ME, 10 min UV-C [1]: 6.66%
HGDC polymerization (%) with β-ME, 20 min UV-C [1]: 15%
HGDC polymerization (%) with β-ME, 30 min UV-C [1]: 25.4%
HGDC polymerization (%) with β-ME, 40 min UV-C [1]: 29.8%
HGDC polymerization (%) with β-ME, 50 min UV-C [1]: 30.1%
HGDC polymerization (%) with β-ME, 60 min UV-C [1]: 31.5%
HGDC polymerization (%) without β-ME, 10 min UV-C [2]: 7.31%
HGDC polymerization (%) without β-ME, 20 min UV-C [2]: 17.6%
HGDC polymerization (%) without β-ME, 30 min UV-C [2]: 30.6%
HGDC polymerization (%) without β-ME, 40 min UV-C [2]: 42%
HGDC polymerization (%) without β-ME, 50 min UV-C [2]: 51.3%
HGDC polymerization (%) without β-ME, 60 min UV-C [2]: 53.6%
B1: recombinant human γD-crystallin, P07320 1-174 (natural protein)
chain: MGKITLYEDRGFQGRHYECSSDHPNLQPYLSRCNSARVDSGCWMLYEQPNYSGLQYFLRRGDYADHQQWMGLSDSVRSCRLIPHSGSHRIRLYEREDYRGQMIEFTEDCSCLQDRFRFNEIHSLNVLEGSWVLYELSNYRGRQYLLMPGDYRRYQDWGATNARVGSLRRVIDFS
